In paper PMC8394153, “Novel Glutamate–Putrescine Ligase Activity in Haloferax mediterranei: A New Function for glnA-2 Gene” (Biomolecules, 2021):

Target: the molecule itself
Experiment: SEC; HiPrep 16/60 Sephacryl S-300 High-Resolution column; eluted in 20 mM Tris-HCl, 2 M NaCl, 10 mM MgCl2, pH 7.5, 0.5 mL/min, room temperature; standard proteins 12.5 to 678 kDa; oligomer size from 667 kDa against a 55 kDa monomer (SDS-PAGE)

B1: recombinant GlnA-2 protein (HFX_1688) from Haloferax mediterranei (enzyme, UniProt I3R584 1-446, looked up)
chain: MSDTSTVKSQCEDQNIDLIRLLYVTPSGVIQANTVDVSEVDAAVESGVTLSEVIQVYDAFACRNRNSRFDAVGEVHLCPDPETFRPLPYADRAGAMLCNIRTLDGEPWDVDSRSSLQSVERDLRAKGLSPQVAFESEFSLFSRDGDGKINRGDEAGAYRTESIRGTHDAILHIVDALKAQGIDVKKYHPEFSPGKHEIVTGHHTGLEAADEHLLLRETVKSVAEQDGYQATFLPKPFDDGTNGCHINVSLWNGENQFFDPNHGDISETARQFIAGVLDHAPAVLALTAPTVNSYSRLQPRHGAAGYICWGWLNREALIRVPAPAQGREADSTRIEFRGADNTANPYLGLIGLLAAGNDGIERELEPPEPVSVDPCDLTDAQRTAKGIKRLPQTLGEALDALETNEVLREALGPDLFDAYVEVKRNHWKLFTESAGAWQRERLRNLY
notes: GlnA-2 of Haloferax mediterranei R4 (ATCC 33500T), locus HFX_1688, annotated as glutamine synthetase; monomer 55 kDa by SDS-PAGE; also called glutamate–putrescine ligase; HFX_01688; source: heterologous expression in E. coli, purified (gel filtration); copies: 12
  stoichiometry N: 12
